According to patent publication WO2025026282A1 (dated 2025):

Legend:
[1] = target: human CD64 (human, UniProt P12314 16-292, limits assumed); experiment: BLI (Octet), human CD64
[2] = target: T1, human CD32 alpha (human, UniProt P12318 34-217, limits assumed); experiment: BLI (Octet), human CD32 alpha
T1 construct: also called FcgammaRII
T1 sequence (looked up): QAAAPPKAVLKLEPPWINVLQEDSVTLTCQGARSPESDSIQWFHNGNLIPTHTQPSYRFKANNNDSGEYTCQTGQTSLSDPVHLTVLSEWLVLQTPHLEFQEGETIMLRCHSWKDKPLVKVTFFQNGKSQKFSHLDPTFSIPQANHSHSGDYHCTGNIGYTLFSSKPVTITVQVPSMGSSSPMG

Sequence of human CD64 (P12314 16-292 limits assumed): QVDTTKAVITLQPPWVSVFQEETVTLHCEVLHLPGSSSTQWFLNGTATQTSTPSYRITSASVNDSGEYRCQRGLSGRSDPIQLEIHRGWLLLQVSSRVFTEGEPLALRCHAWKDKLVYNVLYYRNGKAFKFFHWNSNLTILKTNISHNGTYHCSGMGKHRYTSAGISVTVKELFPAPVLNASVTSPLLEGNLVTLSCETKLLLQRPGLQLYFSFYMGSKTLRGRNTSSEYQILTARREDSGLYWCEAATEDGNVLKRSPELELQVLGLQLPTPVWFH

binding result [1]: binds | Kd [2]: ~527 nM
B1: 12A39 (2:1:1 asymmetric tri-specific antibody, Type E structure, CEA x CD3 x PD-L1) (other)
chain 1: QAVVTQEPSLTVSPGGTVTLTCRSSTGAVTTSNYANWVQQKPGQAPRGLIGGTNKRAPWTPARFSGSLLGGKAALTLSGAQAEDEADYYCALWYSNLWVFGGGTKLTVLRTVAAQVQLVQSGAEVKKPGSSVKVSCKTSGDTFSSYAISWVRDAPGQCLEWMGGIIPIFGKAHYAQKFQGRVTITADESTSTAYMELSSLRSEDTAVYFCARKFHFVSGSPFGMDVWGQGTTVTVSSASEPKSSDKTHTCPPCPAPPVAGPSVFLFPPKPKDTLMISRTPEVTCVVVDVSQEDPEVKFNWYVDGVEVHNAKTKPREEQFNSTYRVVSVLTVLHQDWLNGKEYKCKVSNKGLPSSIEKTISKAKGQPREPQVYTLPPSRDELTKNQVSLWCLVKGFYPSDIAVEWESNGQPENNYKTTPPVLDSDGSFFLYSKLTVDKSRWQQGNVFSCSVMHEALHNHYTQKSLSLSP
chain 2: EVQLVESGGGLVQPGGSLRLSCAASGFTFTDYYMNWVRQAPGKALEWLGFIRNKVNGDTTEYAASVKGRFTISRDDSKNSLYLQMNSLKTEDTAVYYCARDKGIAYYFDYWGQGTLVTVSSASTKGPSVFPLAPSSKSTSGGTAALGCLVKDYFPEPVTVSWNSGALTSGVHTFPAVLQSSGLYSLSSVVTVPSSSLGTQTYICNVNHKPSNTKVDKKVEPKSCDGGGGSGGGGSEIVLTQSPATLSLSPGERATLSCRASQSVSSYLAWYQKKPGQAPRLLIYDASNRATGIPARFSGSGSGTDFTLTISSLEPEDFAVYYCQQRSNWPTFGCGTKVEIKRTVAAEVQLVESGGGLVQPGGSLRLSCAASGFTFSTYAMNWVRQAPGKGLEWVGRIRSKYNNYATYYADSVKGRFTISRDDSKNSLYLQMNSLRAEDTAVYYCVRHGNFGTSYVSWFAYWGQGTLVTVSS
heavy: EVQLVESGGGLVQPGGSLRLSCAASGFTFTDYYMNWVRQAPGKALEWLGFIRNKVNGDTTEYAASVKGRFTISRDDSKNSLYLQMNSLKTEDTAVYYCARDKGIAYYFDYWGQGTLVTVSSASTKGPSVFPLAPSSKSTSGGTAALGCLVKDYFPEPVTVSWNSGALTSGVHTFPAVLQSSGLYSLSSVVTVPSSSLGTQTYICNVNHKPSNTKVDKKVEPKSCDKTHTCPPCPAPPVAGPSVFLFPPKPKDTLMISRTPEVTCVVVDVSQEDPEVKFNWYVDGVEVHNAKTKPREEQFNSTYRVVSVLTVLHQDWLNGKEYKCKVSNKGLPSSIEKTISKAKGQPREPQVYTLPPSRDELTKNQVSLSCAVKGFYPSDIAVEWESNGQPENNYKTTPPVLDSDGSFFLVSKLTVDKSRWQQGNVFSCSVMHEALHNRFTQKSLSLSP
light: EIVLTQSPATLSASPGERATLSCRASQSVSYIHWYQQKPGQSPRPWIHGTSNLATGVPARFSGSGSGTDFTLTISSLEPEDAAVYYCQQWSSNLSTFGGGTKVEIKRTVAAPSVFIFPPSDEQLKSGTASVVCLLNNFYPREAKVQWKVDNALQSGNSQESVTEQDSKDSTYSLSSTLTLSKADYEKHKVYACEVTHQGLSSPVTKSFNRGEC
notes: Tri-specific antibody; also called polypeptide complex 12A39
